# In the supplement of paper PMC9112550, “Optimization of the antimicrobial peptide Bac7 by deep mutational scanning” (BMC Biology, 2022):
# Test system: Escherichia coli TOP10
# Assay: shrunken log2 fold change of peptide-encoding DNA abundance (4.5 h post-induction vs induction); higher = less antimicrobial activity (less host growth inhibition)
# Conditions: time post-induction: 4.5 h; library: site-saturation at positions 5, 18, 19, 20
# 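Note: peptides expressed intracellularly from a pBAD plasmid library in pooled LB shake-flask culture, induced with 0.3% L-arabinose, DNA abundance read by NGS, three biological replicates, DESeq2 with apeglm shrinkage.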
row,Sequence,shrunken log2 fold change
1,RRIRYRPPRLPRPRPRPKHCPRP,-0.611
2,RRIRNRPPRLPRPRPRPLPAPRP,1.07
3,RRIRSRPPRLPRPRPRPQMNPRP,-0.227
4,RRIRPRPPRLPRPRPRPESGPRP,0.415
5,RRIRWRPPRLPRPRPRPWTWPRP,0.0111
6,RRIRQRPPRLPRPRPRPKQPPRP,0.0884
7,RRIRARPPRLPRPRPRPQPNPRP,0.396
8,RRIRYRPPRLPRPRPRPCKFPRP,-0.931
9,RRIRTRPPRLPRPRPRPPNRPRP,0.135
10,RRIRDRPPRLPRPRPRPCHAPRP,-0.0662
11,RRIRRRPPRLPRPRPRPEKEPRP,0.224
12,RRIRFRPPRLPRPRPRPRTGPRP,0.0905
13,RRIRYRPPRLPRPRPRPWMPPRP,-0.417
14,RRIRHRPPRLPRPRPRPGSLPRP,0.134
15,RRIRIRPPRLPRPRPRPVEKPRP,-0.126
16,RRIRERPPRLPRPRPRPLKPPRP,-0.16
17,RRIRGRPPRLPRPRPRPLQKPRP,1.28
18,RRIRRRPPRLPRPRPRPPLPPRP,1.06
19,RRIRWRPPRLPRPRPRPAVTPRP,0.599
20,RRIRKRPPRLPRPRPRPIMPPRP,0.099
21,RRIRDRPPRLPRPRPRPYIHPRP,-0.117
22,RRIRSRPPRLPRPRPRPWRWPRP,0.124
23,RRIRIRPPRLPRPRPRPYPVPRP,-0.18
24,RRIRSRPPRLPRPRPRPNIKPRP,-0.491
25,RRIRQRPPRLPRPRPRPKHAPRP,0.401

row,Sequence,shrunken log2 fold change
1,RRIRSRPPRLPRPRPRPIKRPRP,0.0449
2,RRIRQRPPRLPRPRPRPWVWPRP,0.0723
3,RRIRMRPPRLPRPRPRPQRMPRP,0.583
4,RRIRARPPRLPRPRPRPMVGPRP,0.548
5,RRIRWRPPRLPRPRPRPADVPRP,-0.305
6,RRIRERPPRLPRPRPRPKYDPRP,-0.0434
7,RRIRPRPPRLPRPRPRPQQYPRP,-0.108
8,RRIRNRPPRLPRPRPRPYWVPRP,-0.134
9,RRIRLRPPRLPRPRPRPIEQPRP,-0.0092
10,RRIRVRPPRLPRPRPRPIGTPRP,-0.0334
11,RRIRYRPPRLPRPRPRPDDLPRP,-0.0432
12,RRIRTRPPRLPRPRPRPHARPRP,0.158
13,RRIRDRPPRLPRPRPRPNMWPRP,-0.152
14,RRIRQRPPRLPRPRPRPGQCPRP,-0.156
15,RRIRDRPPRLPRPRPRPQECPRP,0.0795
16,RRIRTRPPRLPRPRPRPCRSPRP,-0.0198
17,RRIRQRPPRLPRPRPRPLLIPRP,-0.141
18,RRIRRRPPRLPRPRPRPSLTPRP,-0.0192
19,RRIRIRPPRLPRPRPRPQLHPRP,-0.252
20,RRIRNRPPRLPRPRPRPTHGPRP,-0.0213
21,RRIRNRPPRLPRPRPRPTTVPRP,-0.12
22,RRIRKRPPRLPRPRPRPMYEPRP,-0.132
23,RRIRQRPPRLPRPRPRPMTQPRP,-0.0451
24,RRIRCRPPRLPRPRPRPMNMPRP,-0.445
25,RRIRLRPPRLPRPRPRPAGGPRP,0.169

row,Sequence,shrunken log2 fold change
1,RRIRLRPPRLPRPRPRPHKMPRP,-0.355
2,RRIRWRPPRLPRPRPRPYRLPRP,0.00724
3,RRIRDRPPRLPRPRPRPIQLPRP,0.0401
4,RRIRFRPPRLPRPRPRPMIEPRP,0.0675
5,RRIRIRPPRLPRPRPRPIGMPRP,-0.187
6,RRIRHRPPRLPRPRPRPVDDPRP,-0.221
7,RRIRFRPPRLPRPRPRPTTTPRP,0.212
8,RRIRGRPPRLPRPRPRPECAPRP,2.14
9,RRIRERPPRLPRPRPRPKWHPRP,-0.136
10,RRIRARPPRLPRPRPRPVADPRP,1.44
11,RRIRERPPRLPRPRPRPTWIPRP,-0.268
12,RRIRYRPPRLPRPRPRPNMTPRP,-0.00766
13,RRIRCRPPRLPRPRPRPRRHPRP,-0.0331
14,RRIRMRPPRLPRPRPRPDGYPRP,0.818
15,RRIRRRPPRLPRPRPRPHGVPRP,0.055
16,RRIRQRPPRLPRPRPRPATDPRP,-0.0316
17,RRIRARPPRLPRPRPRPERDPRP,0.613
18,RRIRHRPPRLPRPRPRPFCCPRP,-0.0718
19,RRIRCRPPRLPRPRPRPDCTPRP,-0.232
20,RRIRCRPPRLPRPRPRPEFPPRP,0.278
21,RRIRGRPPRLPRPRPRPGYEPRP,0.365
22,RRIRWRPPRLPRPRPRPWCAPRP,0.0379
23,RRIRLRPPRLPRPRPRPNGTPRP,-0.221
24,RRIRRRPPRLPRPRPRPDDMPRP,-0.039
25,RRIRFRPPRLPRPRPRPQQVPRP,0.0179

row,Sequence,shrunken log2 fold change
1,RRIRGRPPRLPRPRPRPQEHPRP,0.146
2,RRIRGRPPRLPRPRPRPIRCPRP,0.261
3,RRIRQRPPRLPRPRPRPNPEPRP,0.0266
4,RRIRVRPPRLPRPRPRPLSMPRP,-0.0717
5,RRIRYRPPRLPRPRPRPGCWPRP,0.289
6,RRIRNRPPRLPRPRPRPCKWPRP,-0.339
7,RRIRWRPPRLPRPRPRPKFAPRP,0.453
8,RRIRRRPPRLPRPRPRPWTHPRP,0.0267
9,RRIRYRPPRLPRPRPRPNIFPRP,-0.42
10,RRIRRRPPRLPRPRPRPTHKPRP,0.783
11,RRIRKRPPRLPRPRPRPRSPPRP,0.6
12,RRIRFRPPRLPRPRPRPLFEPRP,-0.0359
13,RRIRYRPPRLPRPRPRPELLPRP,-0.157
14,RRIRHRPPRLPRPRPRPVDAPRP,0.131
15,RRIRHRPPRLPRPRPRPTEAPRP,-0.00626
16,RRIRYRPPRLPRPRPRPNDWPRP,-0.116
17,RRIRCRPPRLPRPRPRPCYYPRP,-1.31
18,RRIRARPPRLPRPRPRPTQQPRP,-0.0711
19,RRIRDRPPRLPRPRPRPFFMPRP,0.033
20,RRIRMRPPRLPRPRPRPSLCPRP,0.694
21,RRIRTRPPRLPRPRPRPLHNPRP,-0.557
22,RRIRCRPPRLPRPRPRPRVRPRP,0.197
23,RRIRQRPPRLPRPRPRPRKGPRP,0.353
24,RRIRHRPPRLPRPRPRPAVHPRP,0.0645
25,RRIRSRPPRLPRPRPRPNICPRP,-0.0465

row,Sequence,shrunken log2 fold change
1,RRIRERPPRLPRPRPRPRSTPRP,-0.259
2,RRIRKRPPRLPRPRPRPQWLPRP,0.0628
3,RRIRARPPRLPRPRPRPMHIPRP,-0.132
4,RRIRKRPPRLPRPRPRPLGHPRP,0.166
5,RRIRQRPPRLPRPRPRPRHVPRP,-0.14
6,RRIRNRPPRLPRPRPRPQPGPRP,0.285
7,RRIRRRPPRLPRPRPRPYCIPRP,-0.264
8,RRIRFRPPRLPRPRPRPGQEPRP,-0.0664
9,RRIRMRPPRLPRPRPRPIGNPRP,0.13
10,RRIRPRPPRLPRPRPRPNNTPRP,-0.312
11,RRIRNRPPRLPRPRPRPGRRPRP,0.79
12,RRIRARPPRLPRPRPRPRRMPRP,0.551
13,RRIRERPPRLPRPRPRPAQRPRP,0.324
14,RRIRSRPPRLPRPRPRPKFHPRP,-0.441
15,RRIRLRPPRLPRPRPRPFTPPRP,-0.265
16,RRIRSRPPRLPRPRPRPVAKPRP,0.116
17,RRIRTRPPRLPRPRPRPNENPRP,1.59
18,RRIRVRPPRLPRPRPRPSKQPRP,-0.201
19,RRIRSRPPRLPRPRPRPQSGPRP,-0.101
20,RRIRKRPPRLPRPRPRPREFPRP,0.607
21,RRIRCRPPRLPRPRPRPQRGPRP,0.337
22,RRIRLRPPRLPRPRPRPKQYPRP,-0.661
23,RRIRERPPRLPRPRPRPAHCPRP,0.0518
24,RRIRWRPPRLPRPRPRPMMFPRP,-0.117
25,RRIRERPPRLPRPRPRPVQWPRP,0.149

row,Sequence,shrunken log2 fold change
1,RRIRSRPPRLPRPRPRPQEQPRP,0.0984
2,RRIRERPPRLPRPRPRPIPTPRP,0.0239
3,RRIRGRPPRLPRPRPRPYGMPRP,0.036
4,RRIRRRPPRLPRPRPRPMLPPRP,-0.000603
5,RRIRQRPPRLPRPRPRPQSKPRP,-0.574
6,RRIRMRPPRLPRPRPRPIRNPRP,0.00101
7,RRIRIRPPRLPRPRPRPNEVPRP,-0.346
8,RRIRFRPPRLPRPRPRPFMWPRP,-0.168
9,RRIRVRPPRLPRPRPRPPCYPRP,-0.356
10,RRIRNRPPRLPRPRPRPFNAPRP,-0.257
11,RRIRKRPPRLPRPRPRPQIGPRP,-0.0295
12,RRIRMRPPRLPRPRPRPIFTPRP,-0.0423
13,RRIRYRPPRLPRPRPRPTTQPRP,-0.597
14,RRIRQRPPRLPRPRPRPPARPRP,0.23
15,RRIRWRPPRLPRPRPRPWWRPRP,0.0782
16,RRIRQRPPRLPRPRPRPRPGPRP,0.286
17,RRIRWRPPRLPRPRPRPSSSPRP,0.00035
18,RRIRIRPPRLPRPRPRPETRPRP,-0.0624
19,RRIRKRPPRLPRPRPRPTAVPRP,0.284
20,RRIRARPPRLPRPRPRPAERPRP,0.301
21,RRIRERPPRLPRPRPRPKSGPRP,-0.136
22,RRIRPRPPRLPRPRPRPIMAPRP,-0.0956
23,RRIRHRPPRLPRPRPRPAATPRP,0.292
24,RRIRARPPRLPRPRPRPMYWPRP,-0.0443
25,RRIRNRPPRLPRPRPRPMENPRP,-0.0164
